Here are results for two molecules from US20240043505A1 (UNIVERSITY OF PITTSBURGH OF THE COMMONWEALTH SYSTEM OF …, published 2024).

Like-named read-outs stand apart in the source and are kept apart here.

The target in experiment [1] is N501Y.
Experiment [2] has as its target K417N.
The target in experiment [3] is N439K.
Experiment [4] deals with T1, SARS-CoV-2 RBD E484K mutant (SARS-CoV-2, UniProt P0DTC2 334-527).
Experiment [5] deals with A475V.
Experiment [6] concerns the target Y453F.
In experiment [7] the target is T2, SARS-CoV-2 spike receptor-binding domain (RBD) (SARS-CoV-2, UniProt P0DTC2 319-541). Briefly: indirect ELISA on coated RBD ('ELISA affinity'). A general note: ELISA stands for enzyme-linked immunosorbent assay.
For experiment [8], the target named is T2, SARS-CoV-2 spike receptor-binding ….
Experiment [9] has the same target. This is another data set of the same source.
The target in experiment [10] is T1, SARS-CoV-2 RBD E484K mutant. Briefly: ELISA.
The target in experiment [11] is T2, SARS-CoV-2 spike receptor-binding …. Briefly: ELISA.

B1: Nb36 (VHH)
VHH: HVQLVESGGGLVQAGGSLTLTCAASGRTFSSETMDMGWFRQAPGKEREFVAADSWNDGSTYYADSVKGRFTISRDSAKNTLYLQMNSLKPEDTAVYYCAAETYSIYEKDDSWGYWGQGTQVTVSS
For orientation: IC50 means the concentration needed to halve the response being measured. The low end stands for inhibition by little substance, the high end for a need for much substance. What is called EC50 (read off the curve) is the concentration that produces a half-maximal response. A high value points to lower potency in that assay. With B1, the “binding affinity fold change relative to RBD WT” value is 1.35 fold in experiment [1]; -2.94 fold in experiment [2]; 1.43 fold in experiment [3]; 1.29 fold in experiment [4]; -1.13 fold in experiment [5]; 1.32 fold in [6]. Further, the IC50 in experiment [7] was 1.04 nM; in experiment [9], 1.7 nM. In addition, the “EC50 (read off the curve)” value in experiment [8] was roughly 3 nM.

B2: Nb21 point mutant R31D (VHH)
VHH: QVQLVESGGGLVQAGGSLRLSCAVSGLGAHDVGWFRRAPGKEREFVAAIGANGGNTNYLDSVKGRFTISRDNAKNTIYLQMNSLKPQDTAVYYCAARDIETAEYTYWGQGTQVTVSS
Regarding B2, the binding result in [10] and in experiment [11] was “no binding” each time.
